From the supplement of paper PMC10201428
± gives the standard deviation of the averaged measurements.

B1: library; a variant is named by its letters at N, in order (parent)
chain: AATGTTGTTGATGCAACCATAAAGTGATATTTAATAATTATTTATAATCAGCAACTTAACCACAAAACAACCATATATTGATATNTCACAAAACAACCATAANTTGATATTTTTGTGAATCGAGTATTTCAGCAAAACTACTGCAGTAAGAA

Assays:
[1] = variants of: B1; assay: relative integration efficiency (T-LR orientation) vs wild-type transposon end (log2 (normalized fold change)); transposon end mutated: left end; higher = more efficient transposition; settings: with VchCAST RNA-guided transposition machinery (E. coli BL21(DE3) host, lacZ target)
How it was run: (§1)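 Pools of 1549 left-end or 1849 right-end barcoded transposon variants were cloned into a pUC57 mini-transposon donor and co-transformed into E. coli BL21(DE3) with a T7-driven effector plasmid carrying a CRISPR array, tniQ-cas8-cas7-cas6 and tnsA-tnsB-tnsC. Plating used 0.1 mM IPTG at 37°C for 18 h, and input plasmids and genomic integration junctions were PCR-amplified for Illumina sequencing, with two biological output replicates and four reference barcodes. Relative integration efficiency is the log-transformed fold change of output over input barcode abundance, normalised to the reference barcodes.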

[2] = variants of: B1; assay: relative integration efficiency (T-RL orientation) vs wild-type transposon end (log2 (normalized fold change)); transposon end mutated: left end; higher = more efficient transposition; settings: with VchCAST RNA-guided transposition machinery (E. coli BL21(DE3) host, lacZ target)
How it was run: as §1

AATGTTGTTGATGCAACCATAAAGTGATATTTAATAATTATTTATAATCAGCAACTTTTCCACAAAACAACCATATATTGATATCTCACAAAACAACCATAAGTTGATATTTTTGTGAATCGAGTATTTCAGCAAAACTACTGCAGTAAGAA [CG A58T A59T]
relative integration efficiency (log2) [1]: 0.226 ± 0.49
relative integration efficiency (log2) [2]: -0.00421 ± 0.16

AATGTTGTTGATGCAACCATAAAGTGATATTTAATAATTATTTATAATCAGCAACTTTTGGACAAAACAACCATATATTGATATCTCACAAAACAACCATAAGTTGATATTTTTGTGAATCGAGTATTTCAGCAAAACTACTGCAGTAAGAA [CG A58T A59T C60G C61G]
relative integration efficiency (log2) [1]: -0.383 ± 0.24
relative integration efficiency (log2) [2]: -0.275 ± 0.27

AATGTTGTTGATGCAACCATAAAGTGATATTTAATAATTATTTATAATCAGCAACTTCCAAACAAAACAACCATATATTGATATCTCACAAAACAACCATAAGTTGATATTTTTGTGAATCGAGTATTTCAGCAAAACTACTGCAGTAAGAA [CG A58C A59C C60A C61A]
relative integration efficiency (log2) [1]: 0.829 ± 0.17
relative integration efficiency (log2) [2]: 1.06 ± 0.036

AATGTTGTTGATGCAACCATAAAGTGATATTTAATAATTATTTATAATCAGCAACTTTACCACAAAACAACCATATATTGATATCTCACAAAACAACCATAAGTTGATATTTTTGTGAATCGAGTATTTCAGCAAAACTACTGCAGTAAGAA [CG A58T]
relative integration efficiency (log2) [1]: -1.76 ± 1.7
relative integration efficiency (log2) [2]: -0.0803 ± 0.089

AATGTTGTTGATGCAACCATAAAGTGATATTTAATAATTATTTATAATCAGCAACTTCACCACAAAACAACCATATATTGATATCTCACAAAACAACCATAAGTTGATATTTTTGTGAATCGAGTATTTCAGCAAAACTACTGCAGTAAGAA [CG A58C]
relative integration efficiency (log2) [1]: -0.0754 ± 0.25
relative integration efficiency (log2) [2]: -0.223 ± 0.17

AATGTTGTTGATGCAACCATAAAGTGATATTTAATAATTATTTATAATCAGCAACTTGACCACAAAACAACCATATATTGATATCTCACAAAACAACCATAAGTTGATATTTTTGTGAATCGAGTATTTCAGCAAAACTACTGCAGTAAGAA [CG A58G]
relative integration efficiency (log2) [1]: -0.0735 ± 0.46
relative integration efficiency (log2) [2]: -0.101 ± 0.063

AATGTTGTTGATGCAACCATAAAGTGATATTTAATAATTATTTATAATCAGCAACTTATGCACAAAACAACCATATATTGATATCTCACAAAACAACCATAAGTTGATATTTTTGTGAATCGAGTATTTCAGCAAAACTACTGCAGTAAGAA [CG A59T C60G]
relative integration efficiency (log2) [1]: 0.263 ± 0.38
relative integration efficiency (log2) [2]: -0.145 ± 0.073

AATGTTGTTGATGCAACCATAAAGTGATATTTAATAATTATTTATAATCAGCAACTTCCCCACAAAACAACCATATATTGATATCTCACAAAACAACCATAAGTTGATATTTTTGTGAATCGAGTATTTCAGCAAAACTACTGCAGTAAGAA [CG A58C A59C]
relative integration efficiency (log2) [1]: -0.146 ± 0.33
relative integration efficiency (log2) [2]: -0.0826 ± 0.066

AATGTTGTTGATGCAACCATAAAGTGATATTTAATAATTATTTATAATCAGCAACTTACAACCAAAACAACCATATATTGATATCTCACAAAACAACCATAAGTTGATATTTTTGTGAATCGAGTATTTCAGCAAAACTACTGCAGTAAGAA [CG A59C C60A C61A A62C]
relative integration efficiency (log2) [1]: 0.009 ± 0.11
relative integration efficiency (log2) [2]: 0.0247 ± 0.0075

AATGTTGTTGATGCAACCATAAAGTGATATTTAATAATTATTTATAATCAGCATGTTAACCACAAAACAACCATATATTGATATCTCACAAAACAACCATAAGTTGATATTTTTGTGAATCGAGTATTTCAGCAAAACTACTGCAGTAAGAA [CG A54T C55G]
relative integration efficiency (log2) [1]: 0.202 ± 0.2
relative integration efficiency (log2) [2]: -0.316 ± 0.29

AATGTTGTTGATGCAACCATAAAGTGATATTTAATAATTATTTATAATCAGCAACTTATCCACAAAACAACCATATATTGATATCTCACAAAACAACCATAAGTTGATATTTTTGTGAATCGAGTATTTCAGCAAAACTACTGCAGTAAGAA [CG A59T]
relative integration efficiency (log2) [1]: 0.107 ± 0.13
relative integration efficiency (log2) [2]: 0.0634 ± 0.055

AATGTTGTTGATGCAACCATAAAGTGATATTTAATAATTATTTATAATCAGCAACTTAGCCACAAAACAACCATATATTGATATCTCACAAAACAACCATAAGTTGATATTTTTGTGAATCGAGTATTTCAGCAAAACTACTGCAGTAAGAA [CG A59G]
relative integration efficiency (log2) [1]: 0.164 ± 0.45
relative integration efficiency (log2) [2]: -0.0472 ± 0.057

AATGTTGTTGATGCAACCATAAAGTGATATTTAATAATTATTTATAATCAGCAACTTACCCACAAAACAACCATATATTGATATCTCACAAAACAACCATAAGTTGATATTTTTGTGAATCGAGTATTTCAGCAAAACTACTGCAGTAAGAA [CG A59C]
relative integration efficiency (log2) [1]: 0.591 ± 0.26
relative integration efficiency (log2) [2]: 0.072 ± 0.14

AATGTTGTTGATGCAACCATAAAGTGATATTTAATAATTATTTATAATCAGCAGCTTAACCACAAAACAACCATATATTGATATCTCACAAAACAACCATAAGTTGATATTTTTGTGAATCGAGTATTTCAGCAAAACTACTGCAGTAAGAA [CG A54G]
relative integration efficiency (log2) [1]: 0.358 ± 0.56
relative integration efficiency (log2) [2]: 0.00787 ± 0.0088

AATGTTGTTGATGCAACCATAAAGTGATATTTAATAATTATTTATAATCAGCATCTTAACCACAAAACAACCATATATTGATATCTCACAAAACAACCATAAGTTGATATTTTTGTGAATCGAGTATTTCAGCAAAACTACTGCAGTAAGAA [CG A54T]
relative integration efficiency (log2) [1]: 0.264 ± 0.087
relative integration efficiency (log2) [2]: 0.224 ± 0.12

AATGTTGTTGATGCAACCATAAAGTGATATTTAATAATTATTTATAATCAGCATGAAAACCACAAAACAACCATATATTGATATCTCACAAAACAACCATAAGTTGATATTTTTGTGAATCGAGTATTTCAGCAAAACTACTGCAGTAAGAA [CG A54T C55G T56A T57A]
relative integration efficiency (log2) [1]: -0.43 ± 0.9
relative integration efficiency (log2) [2]: -0.861 ± 0.54

AATGTTGTTGATGCAACCATAAAGTGATATTTAATAATTATTTATAATCAGCAACTTAACCCCAAAACAACCATATATTGATATCTCACAAAACAACCATAAGTTGATATTTTTGTGAATCGAGTATTTCAGCAAAACTACTGCAGTAAGAA [CG A62C]
relative integration efficiency (log2) [1]: 0.284 ± 0.025
relative integration efficiency (log2) [2]: -0.0795 ± 0.022

AATGTTGTTGATGCAACCATAAAGTGATATTTAATAATTATTTATAATCAGCAACTTATGGTCAAAACAACCATATATTGATATCTCACAAAACAACCATAAGTTGATATTTTTGTGAATCGAGTATTTCAGCAAAACTACTGCAGTAAGAA [CG A59T C60G C61G A62T]
relative integration efficiency (log2) [1]: 0.314 ± 0.15
relative integration efficiency (log2) [2]: 0.00645 ± 0.092

AATGTTGTTGATGCAACCATAAAGTGATATTTAATAATTATTTATAATCAGCAACTTACACACAAAACAACCATATATTGATATCTCACAAAACAACCATAAGTTGATATTTTTGTGAATCGAGTATTTCAGCAAAACTACTGCAGTAAGAA [CG A59C C60A]
relative integration efficiency (log2) [1]: -0.233 ± 0.25
relative integration efficiency (log2) [2]: -0.0701 ± 0.0044
